Laboratory results as given in article PMC5979038.

Tests used:
FtsZ-YFP-mts (E. coli) [1] = assay: single-molecule TIRF residence time; subunits labelled with GFP-Booster Atto647N in filaments on the bilayer, about 0.2 μM protein, 4 mM GTP, 1 mM free Mg2+ (dynamic rings); double exponential fit with photobleaching term
FtsZ-YFP-mts (E. coli) [2] = assay: AUC; sedimentation velocity, 7 μM protein, working buffer, 4 mM GTP and 5 mM Mg2+; monomers to higher-order species
FtsZ-YFP-mts (E. coli) [3] = assay: single-molecule TIRF residence time; subunits labelled with GFP-Booster Atto647N in filaments on the bilayer, about 0.2 μM protein, with GTP, 5 mM free Mg2+ (high-density mesh)

- mean residence time of single subunits within the filaments on the membrane (FtsZ-YFP-mts (E. coli) [1]): 11.5 s
- percent of protein in higher-order species (FtsZ-YFP-mts (E. coli) [2]): 70%
- mean residence time of single subunits within the filaments on the membrane (FtsZ-YFP-mts (E. coli) [3]): 15.1 s
Substance: FtsZ-YFP-mts
